The series addresses T1, GST-JunB (mouse, UniProt P09450 1-344).
T1 sequence: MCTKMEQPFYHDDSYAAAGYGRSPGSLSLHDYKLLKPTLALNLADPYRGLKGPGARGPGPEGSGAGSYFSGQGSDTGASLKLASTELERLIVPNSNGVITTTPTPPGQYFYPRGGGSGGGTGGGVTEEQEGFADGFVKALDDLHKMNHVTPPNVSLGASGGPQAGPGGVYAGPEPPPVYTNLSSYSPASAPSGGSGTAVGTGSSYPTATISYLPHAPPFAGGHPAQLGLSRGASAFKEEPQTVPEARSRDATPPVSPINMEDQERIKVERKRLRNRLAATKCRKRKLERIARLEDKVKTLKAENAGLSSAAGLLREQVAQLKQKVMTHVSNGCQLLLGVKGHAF
In words: EMSA.

B1: Erra promoter TRE probe WT (-1305/-1315) (dsDNA)
DNA 1: AGTGAGTGACTCAGAGGACTT
DNA 2: AAGTCCTCTGAGTCACTCACT
Turning to B1, the binding result is recorded as “binds”.

The values are drawn from publication PMC10954369.
